{"source": "paper PMC3852661", "about": "“Structural basis of SUFU–GLI interaction in human Hedgehog signalling regulation” (Acta Crystallographica Section D: Biological Crystallography, 2013)", "key": {"[1]": {"test_system": "trypsin", "assay": "Limited proteolysis with trypsin", "type": "physicochemical", "conditions": "100 mM ammonium bicarbonate, 23°C", "method": "SUFU32–484 cloned in pLJMBP6c was expressed in E. coli and purified as described above. The purified protein was digested with trypsin (Sigma–Aldrich) in 100 mM ammonium bicarbonate at 23°C. The protease was inactivated by adding 10 mM PMSF and sample-loading buffer followed by heating at 95°C for 5 min. Protein bands were separated by SDS–PAGE and visualized by Coomassie Blue staining. Proteolytic peptide fragments were identified by N-terminal sequencing (Alphalyse A/S) as well as MALDI–TOF and MALDI–TOF/TOF mass-spectrometric analyses (Ultraflex II and Autoflex III, Bruker Daltonics)."}, "[2]": {"assay": "Thermal stability of MBP-SUFU constructs", "type": "physicochemical", "conditions": "SYPRO Orange, 2.2 µM protein, no peptide, 50 mM Na HEPES pH 7.0, 50 mM NaCl, 5 mM β-mercaptoethanol; heated 20 to 90°C; triplicate", "method": "Recombinant MBP-SUFU proteins were diluted to 2.6 µM in 50 mM Na HEPES pH 7.0, 50 mM NaCl, 5 mM β-mercaptoethanol; the peptides GLI1p and GLI1p-SH (Supplementary Table S1b), synthesized by Dr W. Mawby (University of Bristol), were dissolved in the same buffer. Proteins were spun at 14 000g for 20 min at 4°C before adding SYPRO Orange (Molecular Probes) to a final concentration of 6×. Reaction volumes of 25 µl were prepared in 96-well PCR plates with 2.2 µM protein/SYPRO Orange solution and, where applicable, 44 µM peptide. Plates were sealed with optical tape, heated from 20 to 90°C in 12 s 0.2°C steps in an iCycler and fluorescence was detected using an excitation wavelength of 470 nm and an emission wavelength of 570 nm.\nTo determine whether the IDR affects the GLI-binding properties of SUFU, we used a human GLI1-derived peptide (GLI1p; residues 115–131; Supplementary Table S1b) containing the highly conserved SYGH motif important for interaction with SUFU (Dunaeva et al., 2003[▶]) in a thermal stability assay with MBP-SUFU-FL and MBP-SUFU-Δ (Fig. 4 ▶ a). The addition of GLI1p stabilized both proteins: T m for MBP-SUFU-FL was shifted by 4°C and that for MBP-SUFU-Δ was shifted by 3.6°C. […] The GLI1 dose dependency of this effect was confirmed in a separate experiment with increasing GLI1p concentrations (Supplementary Fig. S7a)."}, "[3]": {"test_system": "GLI2", "assay": "GLI2-induced reporter gene activity in HEK 293 cells", "type": "cell-based", "conditions": "transient transfection, HEK 293, 12GLI-RE-TKO-luc luciferase reporter, 48 h", "source_text": "(§1) SUFU variants with mutated IDR regions, the SUFU-Δ, SUFU-SH, SUFU-SH2 and SUFU-IDRfly constructs, were generated by replacing amino acids 279–360 of N-terminally Myc-tagged full-length SUFU in pcDNA3.1 (Invitrogen) with corresponding sequences synthesized at GenScript USA Inc. (Supplementary Table S1a). HEK 293 cells were transfected with a mixture of GLI1-FLAG or Myc-GLI2 (Roessler et al., 2005[▶]; a kind gift from Erich Roessler) and Myc-SUFU constructs together with 12GLI-RE-TKO-luc luciferase reporter (Kogerman et al., 1999[▶]) and pRL-SV40 (Promega) internal control using Fugene 6 or X-tremeGENE 9 (Roche) transfection reagent. Expression assays were carried out for 48 h, followed by luciferase activity measurements using a Dual Luciferase Activity Assay Kit (Promega). To verify the expression levels of transfected SUFU and GLI constructs, aliquots of cell lysates were separated by SDS–PAGE and subjected to immunoblot analysis as above. The densities of the visualized protein bands were quantified using the ImageJ 1.47v image-analysis and image-processing software (Schneider et al., 2012[▶])."}, "[4]": {"test_system": "GLI1", "assay": "GLI1-induced reporter gene activity in HEK 293 cells", "type": "cell-based", "conditions": "transient transfection, HEK 293, 12GLI-RE-TKO-luc luciferase reporter, 48 h", "source_text": "as §1"}, "[5]": {"test_system": "GLI1", "assay": "Co-immunoprecipitation with GLI1", "type": "binding", "conditions": "Cos-7 cell lysates, GLI1-FLAG and Myc-SUFU; four independent experiments", "method": "Cos-7 cells were transfected separately with C-terminally FLAG-tagged GLI1 in pCMV5 (Andersson et al., 1989[▶]) and N-terminally Myc-tagged SUFU in pCMV-Script (Stratagene) using Fugene 6 (Roche). 24 h after transfection, the cells were lysed with 50 mM Tris–HCl pH 7.4, 150 mM NaCl, 1% NP-40, 0.25% sodium deoxycholate, 1 mM N-ethylmaleimide (Fluka), 1 mM dithiothreitol and cOmplete Mini protease inhibitors (Roche). Normalized lysates were combined and pre-incubated for 6 h. Co-immunoprecipitation was performed for 16 h using agarose-conjugated anti-FLAG M2 (Sigma–Aldrich) and anti-Myc 9b11 (Cell Signaling) antibodies. The beads were washed three times with 500 µl lysis buffer and the bound protein was eluted by boiling the beads in SDS–PAGE sample buffer and analyzed by Western blotting. Samples were separated by SDS–PAGE, transferred to polyvinylidene fluoride Immobilon-P membranes (Millipore) and probed using anti-Myc 71D10 (Cell Signaling) or anti-Myc 9E10 (Santa Cruz) antibodies and anti-DYKDDDDK tag antibody (Cell Signaling). Similar results were obtained in four independent experiments."}, "[6]": {"test_system": "Hh pathway, Sufu −/− MEFs", "assay": "Constitutive Hh pathway activity in Sufu −/− MEFs", "type": "cell-based, mouse", "conditions": "Gli-BS luciferase reporter", "method": "Sufu ^−/− mouse embryonic fibroblast (MEF) cells (Svärd et al., 2006[▶]) were transfected with a mixture of p8x3′Gli-BS LucII or p8x3′Gli-mBS LucII reporter constructs (Sasaki et al., 1997[▶]; generous gifts from Hiroshi Sasaki) together with pRL-SV40 (Promega) internal control using Lipofectamine LTX with Plus reagent (Invitrogen) according to the manufacturer’s instructions. Following transfection, Sufu ^−/− MEF cells were grown until the culture reached confluency (24–48 h) and the cells were then switched to low-serum medium (0.5% FBS) with 100–200 nM SAG (kindly provided by Jan Bergman, Karolinska Institutet), 10 µM purmorphamine (Calbiochem) or Shh conditioned medium (1:4) and grown for an additional 48–72 h. Cell lysis and luciferase activity measurements were performed using a Dual Luciferase Activity Assay Kit (Promega). For statistical evaluation of reporter gene assays, a one-tailed paired Student’s t-test was used. All activity measurements were performed at least three times in independent experiments."}, "[7]": {"conditions": "R123C germline mutation; ref Aavikko et al., 2012; cited from earlier work", "source_text": "SUFU is a tumour suppressor protein that is found to be inactivated most frequently (up to 50%) by germline mutations in children below the age of three presenting with medulloblastoma of the desmoplastic/nodular subtype (Slade et al., 2011[▶]; Brugières et al., 2012[▶]), whereas a somatic mutation frequency of about 10% has been reported for sporadic medulloblastomas of the desmoplastic subtype (Taylor et al., 2002[▶]). Moreover, germline or somatic mutations in the SUFU gene have recently been described in association with meningioma and chondrosarcoma (Aavikko et al., 2012[▶]; Kijima et al. ..."}}, "data": [{"molecule": "MBP-SUFU-FL: MBP fusion containing residues 32–483 of human SUFU and a C-terminal hexahistidine tag (protein, left off: MBP, N-terminal, kept | His6, C-terminal, state not stated, MBP fusion containing residues 32–483 of human SUFU and a C-terminal hexahistidine tag) PGLHAIYGECRRLYPDQPNPLQVTAIVKYWLGGPDPLDYVSMYRNVGSPSANIPEHWHYISFGLSDLYGDNRVHEFTGTDGPSGFGFELTFRLKRETGESAPPTWPAELMQGLARYVFQSENTFCSGDHVSWHSPLDNSESRIQHMLLTEDPQMQPVQTPFGVVTFLQIVGVCTEELHSAQQWNGQGILELLRTVPIAGGPWLITDMRRGETIFEIDPHLQERVDKGIETDGSNLSGVSAKCAWDDLSRPPEDDEDSRSICIGTQPRRLSGKDTEQIRETLRRGLEINSKPVLPPINPQRQNGLAHDRAPSRKDSLESDSSTAIIPHELIRTRQLESVHLKFNQESGALIPLCLRGRLLHGRHFTYKSITGDMAITFVSTGVEGAFATEEHPYAAHGPWLQILLTEEFVEKMLEDLEDLTSPEEFKLPKEYSWPEKKLKVSILPDVVFDSPL", "values": [{"measurement": "protease-hypersensitive sites", "setting": "[1]", "result": "Several protease-hypersensitive sites were found clustered within residues 299–363"}, {"measurement": "Tm", "setting": "[2]", "result": 50.1, "unit": "°C"}]}, {"molecule": "MBP-SUFU-Δ: MBP-SUFU with amino acids 279–360 replaced by the heptamer sequence PSRGEDP (protein, left off: MBP, N-terminal, kept | His6, C-terminal, state not stated) PGLHAIYGECRRLYPDQPNPLQVTAIVKYWLGGPDPLDYVSMYRNVGSPSANIPEHWHYISFGLSDLYGDNRVHEFTGTDGPSGFGFELTFRLKRETGESAPPTWPAELMQGLARYVFQSENTFCSGDHVSWHSPLDNSESRIQHMLLTEDPQMQPVQTPFGVVTFLQIVGVCTEELHSAQQWNGQGILELLRTVPIAGGPWLITDMRRGETIFEIDPHLQERVDKGIETDGSNLSGVSAKCAWDDLPSRGEDPIRTRQLESVHLKFNQESGALIPLCLRGRLLHGRHFTYKSITGDMAITFVSTGVEGAFATEEHPYAAHGPWLQILLTEEFVEKMLEDLEDLTSPEEFKLPKEYSWPEKKLKVSILPDVVFDSPL", "values": [{"measurement": "Tm", "setting": "[2]", "result": 46.6, "unit": "°C"}]}, {"molecule": "SUFU-FL: full-length SUFU, N-terminally Myc-tagged (protein, left off: Myc, N-terminal, kept, full-length SUFU, N-terminally Myc-tagged) MAELRPSGAPGPTAPPAPGPTAPPAFASLFPPGLHAIYGECRRLYPDQPNPLQVTAIVKYWLGGPDPLDYVSMYRNVGSPSANIPEHWHYISFGLSDLYGDNRVHEFTGTDGPSGFGFELTFRLKRETGESAPPTWPAELMQGLARYVFQSENTFCSGDHVSWHSPLDNSESRIQHMLLTEDPQMQPVQTPFGVVTFLQIVGVCTEELHSAQQWNGQGILELLRTVPIAGGPWLITDMRRGETIFEIDPHLQERVDKGIETDGSNLSGVSAKCAWDDLSRPPEDDEDSRSICIGTQPRRLSGKDTEQIRETLRRGLEINSKPVLPPINPQRQNGLAHDRAPSRKDSLESDSSTAIIPHELIRTRQLESVHLKFNQESGALIPLCLRGRLLHGRHFTYKSITGDMAITFVSTGVEGAFATEEHPYAAHGPWLQILLTEEFVEKMLEDLEDLTSPEEFKLPKEYSWPEKKLKVSILPDVVFDSPLH", "values": [{"measurement": "repression of transcriptional activity induced by GLI2", "setting": "[3]", "result": "efficiently repressed"}, {"measurement": "repression of transcriptional activity induced by GLI1", "setting": "[4]", "result": "efficiently repressed"}, {"measurement": "GLI1 binding in Co-IP", "setting": "[5]", "result": "no remarkable difference in GLI1 binding"}, {"measurement": "suppression of constitutive Hh pathway activity", "setting": "[6]", "result": "suppress constitutive pathway activity in Sufu ^−/− cells (c) with similar efficiency"}]}, {"molecule": "R123C: SUFU R123C mutation segregated with tumour development in a family predisposed to meningiomas (protein, UniProt Q9UMX1 1-484, looked up, variant R123C) Suppressor of fused homolog: MAELRPSGAPGPTAPPAPGPTAPPAFASLFPPGLHAIYGECRRLYPDQPNPLQVTAIVKYWLGGPDPLDYVSMYRNVGSPSANIPEHWHYISFGLSDLYGDNRVHEFTGTDGPSGFGFELTFCLKRETGESAPPTWPAELMQGLARYVFQSENTFCSGDHVSWHSPLDNSESRIQHMLLTEDPQMQPVQTPFGVVTFLQIVGVCTEELHSAQQWNGQGILELLRTVPIAGGPWLITDMRRGETIFEIDPHLQERVDKGIETDGSNLSGVSAKCAWDDLSRPPEDDEDSRSICIGTQPRRLSGKDTEQIRETLRRGLEINSKPVLPPINPQRQNGLAHDRAPSRKDSLESDSSTAIIPHELIRTRQLESVHLKFNQESGALIPLCLRGRLLHGRHFTYKSITGDMAITFVSTGVEGAFATEEHPYAAHGPWLQILLTEEFVEKMLEDLEDLTSPEEFKLPKEYSWPEKKLKVSILPDVVFDSPLH", "values": [{"measurement": "inhibitory activity in cellular assays", "setting": "[7]", "result": "reduced inhibitory activity"}]}]}
